Data published in patent publication US11612667B2, “Enhanced in vivo targeting of radiolabelled peptides with the means of enzyme inhibitors” (Advanced Accelerator Applications USA, Inc., priority 2011, dated 2023).
Non-standard residues stand in square brackets, D forms with d. Residues, ends and D or L forms follow the SMILES beside them. *: point of attachment. DOTA = O=C(O)CN1CCN(CC(=O)O)CCN(CC(=O)*)CCN(CC(=O)O)CC1; Nle = CCCC[C@H](N)C(=O)O; X1 = NCCNCC(CNCCN)C(=O)*; AEEA = NCCOCCOCC(=O)O; βAla = NCCC(=O)O; For = O=C*

What was measured:
[1] = design: species or system Swiss albino mice; settings: mouse, in vivo, 5 min
Description: Whole blood was collected 5 min postinjection (pi), blood cells were removed and major proteins were precipitated and then the supernatant was analyzed by RP-HPLC coupled to a gamma detector.
Alternatively, the dual NEP and ACE inhibitor racecadotril (race; 2.5 mg) was ip injected 45-60 min prior to radioligand injection and the same procedure was followed as described above.
To test the in vivo stability, ^111In-DOTA-MG11 was injected in the tail vein of Swiss albino mice and 5 min afterwards blood was collected, blood cells were removed and major proteins were precipitated and then the supernatant was analyzed by RP-HPLC coupled to a gamma detector. As shown in the radiochromatogram of FIG. 3A, the major part of ^111In-DOTA-MG11 was consumed during this period (<5% intact peptide still detected), in agreement with previous reports. Further, ^111In-DOTA-MG11 was co-injected together with PA or injected 1 h after ip injection of race (2.5 mg) in more mice and the same protocol was followed as above. Amazingly, the percentage of ^111In-DOTA-MG11 found intact in the blood of the PA-treated mice was raised from <5% to 75% and in the race-pretreated mice to 73%.
For ex vivo blood analysis, [^99mTc]Demotensin 6 was injected in the tail vein of Swiss albino mice and blood collected 5 min thereafter was analyzed as previously described. The effect of PA on stability was studied by co-injection of PA along with [^99mTc]Demotensin 6. Furthermore, a PA dose study was performed with the PA injected dose ranging from 300 μg down to 0.03 μg and results are summarized in FIG. 4A.
Additional groups of radiopeptides with relevance for nuclear medicine applications have been studied for their in vivo stability. Radiopeptides were injected in the tail vein of healthy mice, either alone, or with a NEP inhibitor (PA—300 μg), or with a NEP (PA—300 μg) and an ACE (Lis—300 μg) inhibitor mixture; alternatively, another NEP inhibitor prodrug (race—2.5 mg) was ip injected in the animals ˜45 min prior to radioligand injection. Blood was collected 5 min afterwards, and analyzed by RP-HPLC after suitable preparation, as previously described.

[2] = test system: human prostate adenocarcinoma PC-3 xenografts (GRPR+); design: species or system SCID mice; settings: mouse, in vivo; for uptake in PC-3 tumor: SCID, 4 h
Description: FIG. 6C: Biodistribution of [^99mTc]SAR-NC1 in SCID mice bearing human prostate adenocarcinoma PC-3 xenografts (GRPR^+) at 4 h pi.
In FIG. 6B and FIG. 7B, the biodistribution of [^99mTc]SAR-NC1 and [^99mTc]SAR-NC6 in SCID mice bearing human prostate adenocarcinoma PC-3 xenografts (GRPR^+) at 4 h respectively, after injection of the radioligand alone or with co-injection of PA (300 μg) are shown.
It is interesting to note that with co-injection of the blocker and PA tumor values were minimal (0.69±0.03% ID/g) showing that PA provoked a GRPR-mediated increase in tumor uptake.
The effect of PA-induced stabilization of [^99mTc]Demobesin 1 on tumor uptake is illustrated in FIG. 10B, showing the biodistribution at 4 h pi after injection of [^99mTc]Demobesin 1 in SCID mice bearing human PC-3 xenografts (GRPR^+) (control), or with PA (300 μg).

[3] = mouse; cited from earlier work
WiDr tumors (hNTS1+) = assay: Biodistribution / tumor uptake in SCID mice bearing WiDr tumors (hNTS1+); settings: 4 h pi
Description: FIG. 4H: Biodistribution of [^99mTc]Demotensin 6 in SCID mice bearing WiDr tumors (hNTS1^+) at 4 h pi. Bars represent average uptake as mean % injected dose per gram (% ID/g) of at least 4 animals with standard deviation (control at 4 h 2nd bars); three additional groups of animals received either excess NT(1-13) and PA (100 μg blocker and 300 μg PA—first bars), or PA (300 μg PA—3rd bars) or PA and Lis (300 μg PA+250 μg Lis—4th bars). Bl=blood, Li=liver, He=heart, Ki=kidneys, St=stomach, In=intestines, Sp=spleen, Mu=muscle, Lu=lungs, Pa=pancreas, Fe=femur and Tu=WiDr tumor.
FIG. 5H: Biodistribution of [^99mTc]Demotensin 1 in SCID mice bearing WiDr tumors (hNTS1+) at 4 h pi. Bars represent average uptake as mean % injected dose per gram (% ID/g) of at least 4 animals with standard deviation (control at 4 h 2nd bars); three additional groups of animals received either excess NT and PA (100 μg and 300 μg PA, respectively—first bars), or PA (300 μg PA—3rd bars) or PA and Lis (300 μg PA+300 μg Lis—4th bars). Bl=blood, Li=liver, He=heart, Ki=kidneys, St=stomach, In=intestines, Sp=spleen, Mu=muscle, Lu=lungs, Pa=pancreas, Fe=femur and Tu=WiDr tumor.
In FIG. 4B the effects of such regimens on SCID mice bearing the human colon adenocarcinoma WiDr tumor (a hNTS1R^+ tumor) on enhancing in vivo tumor targeting are presented.
In FIG. 5B the effects of above regimens on SCID mice bearing WiDr tumors (hNTS1R^+) on enhancing in vivo tumor targeting are shown.

CCCC[C@H](NC(=O)[C@H](CO)NC(=O)[C@H](Cc1ccc(O)cc1)NC(=O)[C@H](CO)NC(=O)CN1CCN(CC(=O)O)CCN(CC(=O)O)CCN(CC(=O)O)CC1)C(=O)N[C@@H](CCC(=O)O)C(=O)N[C@@H](Cc1cnc[nH]1)C(=O)N[C@H](Cc1ccccc1)C(=O)N[C@@H](CCCN=C(N)N)C(=O)N[C@@H](Cc1c[nH]c2ccccc12)C(=O)NCC(=O)N[C@@H](CCCCN)C(=O)N1CCC[C@H]1C(=O)N[C@H](C(N)=O)C(C)C [[111In]MSH-2, (DOTA)Ser-Tyr-Ser-Nle-Glu-His-DPhe-Arg-Trp-Gly-Lys-Pro-Val-NH2, metal not drawn]
percentage of parent peptide remaining intact [1]: 77%

CC(C)C[C@H](NC(=O)C[C@H](O)[C@H](CC(C)C)NC(=O)[C@H](Cc1c[nH]cn1)NC(=O)CNC(=O)[C@@H](NC(=O)[C@H](C)NC(=O)[C@H](Cc1c[nH]c2ccccc12)NC(=O)[C@H](CCC(N)=O)NC(=O)[C@@H](Cc1ccccc1)NC(=O)CCNC(=O)CCNC(=O)CN1CCN(CC(=O)O)CCN(CC(=O)O)CCN(CC(=O)O)CC1)C(C)C)C(N)=O [[^111In]JMV4168, [^111In]DOTA-βAla-βAla-DPhe-Gln-Trp-Ala-Val-Gly-His-Sta-Leu-NH2, metal not drawn]
uptake in PC-3 tumor [2]: 10.22±2.40 % ID/g | pancreas uptake [2]: remained very low

CC(C)C[C@H](NC(=O)CNC(=O)[C@H](Cc1ccccc1)NC(=O)[C@H](Cc1ccccc1)NC(=O)[C@H](CCC(N)=O)NC(=O)[C@H](CCC(N)=O)NC(=O)[C@@H]1CCCN1C(=O)[C@H](CCCCN)NC(=O)[C@@H]1CCCN1C(=O)[C@H](CCCNC(=N)N)NC(=O)CN1CCN(CC(=O)O)CCN(CC(=O)O)CCN(CC(=O)O)CC1)C(=O)N[C@@H](CCS(C)(=O)=O)C(N)=O [[111In]SP-2, metal not drawn]
percentage of parent peptide remaining intact [1]: 24%

CCCC[C@H](NC(=O)[C@H](CO)NC(=O)[C@H](Cc1ccc(O)cc1)NC(=O)[C@H](CO)NC(=O)CN1CCN(CC(=O)O)CCN(CC(=O)O)CCN(CC(=O)O)CC1)C(=O)N[C@@H](CCC(=O)O)C(=O)N[C@@H](Cc1c[nH]cn1)C(=O)N[C@@H](Cc1ccccc1)C(=O)N[C@@H](CCCNC(=N)N)C(=O)N[C@@H](Cc1c[nH]c2ccccc12)C(=O)NCC(=O)N[C@@H](CCCCN)C(=O)N1CCC[C@H]1C(=O)N[C@H](C(N)=O)C(C)C [[111In]MSH-1, metal not drawn]
percentage of parent peptide remaining intact [1]: 52%

CCCC[C@H](NC(=O)[C@H](CC(C)C)NC(=O)[C@H](Cc1c[nH]cn1)NC(=O)CNC(=O)[C@@H](NC(=O)[C@H](C)NC(=O)[C@H](Cc1c[nH]c2ccccc12)NC(=O)[C@H](CCC(N)=O)NC(=O)[C@H](CC(N)=O)NC(=O)CNC(=O)[C@H](Cc1ccc(O)cc1)NC(=O)[C@H](CCCN=C(N)N)NC(=O)[C@H](CCC(N)=O)NC(=O)[C@@H]1CCCN1C(=O)C(CNCCN)CNCCN)C(C)C)C(N)=O [[^99mTc]Demobesin 4, metal not drawn]
in vitro stability in plasma [3]: very high | uptake in PC-3 tumor [2]: 11.26±1.81 % ID/g | percentage of parent peptide remaining intact [1]: 26%

CC[C@H](C)[C@H](NC(=O)[C@H](Cc1ccc(O)cc1)NC(=O)[C@@H]1CCCN1C(=O)[C@H](CCCN=C(N)N)NC(=O)[C@H](CCCN=C(N)N)NC(=O)CNC(=O)C(CNCCN)CNCCN)C(=O)N[C@@H](CC(C)C)C(=O)O [[^99mTc]Demotensin 1, ^99mTc-N4-Gly-Arg-Arg-Pro-Tyr-Ile-Leu-OH, metal not drawn] (X1-GRRPYIL-OH)
uptake in WiDr tumor (WiDr tumors (hNTS1+); PA 300 μg): 4.58±0.47 % ID/g | uptake in WiDr tumor (WiDr tumors (hNTS1+); PA 300 μg + Lis (250 μg for Demotensin 6, 300 μg for Demotensin 1)): 7.71±1.19 % ID/g | uptake in WiDr tumor, blockade (WiDr tumors (hNTS1+); excess NT 100 μg blocker + 300 μg PA): 0.23±0.09 % ID/g | uptake in WiDr tumor (WiDr tumors (hNTS1+); non-treated controls): 1.20±0.21 % ID/g

CCCC[C@H](NC(=O)[C@H](Cc1ccccc1)NC(=O)[C@H](Cc1c[nH]cn1)NC(=O)CCNC(=O)[C@@H](NC(=O)[C@H](C)NC(=O)[C@H](Cc1c[nH]c2ccccc12)NC(=O)[C@H](CCC(N)=O)NC(=O)[C@@H](Cc1ccc(O)cc1)NC(=O)COCCOCCNC(=O)CN1CCN(CC(=O)O)CCN(CC(=O)O)CCN(CC(=O)O)CC1)C(C)C)C(N)=O [[^111In]PanSarbesin 1, ^111In-DOTA-PEG2-DTyr-Gln-Trp-Ala-Val-βAla-His-Phe-Nle-NH2, metal not drawn] ({DOTA-AEEA}-[dY]QWAV[βAla]HF[Nle]-NH2)
uptake in PC-3 tumor [2]: 3.75±0.73 % ID/g | percentage of parent peptide remaining intact [1]: 13%

CCCC[C@H](NC=O)C(=O)N[C@@H](CC(C)C)C(=O)N[C@@H](Cc1ccccc1)C(=O)N[C@@H](CCCC)C(=O)N[C@@H](Cc1ccc(O)cc1)C(=O)N[C@@H](CCCCNC(=O)CN1CCN(CC(=O)O)CCN(CC(=O)O)CCN(CC(=O)O)CC1)C(=O)O [[111In] CTP-1, For-Nle-Leu-Phe-Nle-Tyr-Lys(DOTA)-OH, metal not drawn] (For-[Nle]LF[Nle]YK(DOTA)-OH)
percentage of parent peptide remaining intact [1]: 2%

CC(C)C[C@H](NC(=O)CN(C)C(=O)[C@H](Cc1ccccc1)NC(=O)[C@H](Cc1ccccc1)NC(=O)[C@H](CCC(N)=O)NC(=O)[C@H](CCC(N)=O)NC(=O)[C@@H]1CCCN1C(=O)[C@H](CCCCN)NC(=O)[C@@H]1CCCN1C(=O)[C@H](CCCNC(=N)N)NC(=O)CN1CCN(CC(=O)O)CCN(CC(=O)O)CCN(CC(=O)O)CC1)C(=O)N[C@@H](CCS(C)(=O)=O)C(N)=O [[111In]SP-3, metal not drawn]
percentage of parent peptide remaining intact [1]: 51%

CCNC(=O)[C@H](CC(C)C)NC(=O)[C@H](Cc1c[nH]cn1)NC(=O)CNC(=O)[C@@H](NC(=O)[C@H](C)NC(=O)[C@H](Cc1c[nH]c2ccccc12)NC(=O)[C@H](CCC(N)=O)NC(=O)[C@@H](Cc1ccccc1)NC(=O)COCC(=O)Nc1ccc(CC(CNCCN)CNCCN)cc1)C(C)C [[^99mTc]Demobesin 1, metal not drawn]
in vitro stability in plasma [3]: high in vitro stability | uptake in PC-3 tumor [2]: 12.73±0.93 % ID/g

CSCC[C@H](NC(=O)[C@H](CC(C)C)NC(=O)[C@H](Cc1c[nH]cn1)NC(=O)CNC(=O)[C@@H](NC(=O)[C@H](C)NC(=O)[C@H](Cc1c[nH]c2ccccc12)NC(=O)[C@H](Cc1c[nH]cn1)NC(=O)[C@H](CC(N)=O)NC(=O)CNC(=O)C(CNCCN)CNCCN)C(C)C)C(N)=O [[^99mTc]SAR-NC1, metal not drawn]
uptake in PC-3 tumor [2]: 6.51±1.91 % ID/g | percentage of parent peptide remaining intact [1]: 30%

CSCC[C@H](NC(=O)[C@H](CC(C)C)NC(=O)CNC(=O)[C@H](Cc1ccccc1)NC(=O)[C@H](Cc1ccccc1)NC(=O)[C@H](CCC(N)=O)NC(=O)[C@H](CCC(N)=O)NC(=O)[C@@H]1CCCN1C(=O)[C@H](CCCCN)NC(=O)[C@@H]1CCCN1C(=O)[C@H](CCCNC(=N)N)NC(=O)CN1CCN(CC(=O)O)CCN(CC(=O)O)CCN(CC(=O)O)CC1)C(N)=O [[111In]SP-1, metal not drawn]
percentage of parent peptide remaining intact [1]: 7%
